Source: PMC2141705

Biological target: calnexin (mouse (endogenous in AtT-20)) (UniProt P35564)
Assay: co-IP

Chain of UniProt P35564 (P35564 21-591): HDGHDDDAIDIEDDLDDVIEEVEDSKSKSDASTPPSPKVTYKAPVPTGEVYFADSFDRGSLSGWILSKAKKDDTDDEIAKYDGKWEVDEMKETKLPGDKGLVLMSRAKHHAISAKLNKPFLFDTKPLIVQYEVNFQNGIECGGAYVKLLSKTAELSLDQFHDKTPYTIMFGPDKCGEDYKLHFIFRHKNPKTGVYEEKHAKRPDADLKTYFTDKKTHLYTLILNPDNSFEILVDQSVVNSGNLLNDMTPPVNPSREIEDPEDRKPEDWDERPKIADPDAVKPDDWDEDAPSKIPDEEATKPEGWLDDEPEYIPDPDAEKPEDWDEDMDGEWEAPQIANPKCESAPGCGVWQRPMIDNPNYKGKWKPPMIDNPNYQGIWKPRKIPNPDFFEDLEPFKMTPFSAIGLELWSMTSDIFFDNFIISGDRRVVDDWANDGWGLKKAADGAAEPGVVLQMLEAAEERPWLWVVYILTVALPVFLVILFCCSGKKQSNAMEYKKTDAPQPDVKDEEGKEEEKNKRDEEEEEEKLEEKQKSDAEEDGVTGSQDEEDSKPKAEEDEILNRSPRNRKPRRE

percent of total radiolabeled proPC2 coimmunoprecipitated: 5%
Substance: proPC2 (proenzyme form of prohormone convertase 2) (from UniProt P28841 25-637)
